US20210246166A1 (Bayer, published 2021)
Numbered stars: 1 amine (or outer) side, 2 acyl side, 3 side chain; on linkers, the order of the positions; unused ones are H or OH. Bridge positions count the residues as written; N and C are the ends. Square brackets hold non-standard residues; d marks the D form. Ends that are not written are not given here. * marks the point of attachment. Phe(2,3-F2) = (2S)-3-(2,3-difluorophenyl)-2-aminopropanoic acid, O=C([C@H](Cc1cccc(F)c1F)N[*:1])[*:2]; X7 = 4‑(3,5-Dimethyl-1,2-oxazol-4-yl)‑L‑phenylalanine, Cc1noc(C)c1-c1ccc(C[C@H](N[*:1])C(=O)[*:2])cc1; X5 = Tetrahydropyranyl‑4‑acetic acid, O=C(CC1CCOCC1)*; His(τ-Bzl) = N[C@@H](Cc1cn(Cc2ccccc2)cn1)C(=O)O; Pro(4-spirocPr) = O=C(O)[C@@H]1CC2(CC2)CN1; Oic = O=C(O)[C@@H]1C[C@@H]2CCCC[C@@H]2N1; tBuAla = CC(C)(C)C[C@H](N)C(=O)O; (3-Me)H = L-3-methylhistidine; Pen = CC(C)(S)[C@H](N)C(=O)O; NMeC = CN[C@@H](CS)C(=O)O; NMeA = CN[C@@H](C)C(=O)O; Orn = NCCC[C@H](N)C(=O)O; Sar = CNCC(=O)O

T1: recombinant rat MASP1 active protease (amino acids 302-704, C-terminal His Tag) (rat, UniProt Q8CHN8 302-704)
T1 sequence: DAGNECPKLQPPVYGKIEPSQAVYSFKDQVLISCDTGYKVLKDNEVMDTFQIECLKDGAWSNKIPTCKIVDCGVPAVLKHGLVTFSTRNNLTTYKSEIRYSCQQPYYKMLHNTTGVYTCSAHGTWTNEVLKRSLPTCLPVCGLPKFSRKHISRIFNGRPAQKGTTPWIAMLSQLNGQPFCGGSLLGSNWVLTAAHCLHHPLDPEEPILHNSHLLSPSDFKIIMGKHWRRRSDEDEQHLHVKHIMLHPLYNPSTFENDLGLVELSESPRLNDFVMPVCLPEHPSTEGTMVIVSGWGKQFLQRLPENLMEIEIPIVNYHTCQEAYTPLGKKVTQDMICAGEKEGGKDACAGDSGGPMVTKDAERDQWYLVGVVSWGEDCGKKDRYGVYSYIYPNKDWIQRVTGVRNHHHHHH

B1: Example 441: ((N-Me)G)-IC+SRS-((2S)-3-(2,3-difluorophenyl)-2-aminopropanoic acid)-P-(Oic)-I-(Pen)+IP-NH2 (peptide)
peptide: [Sar]ICSRS[Phe(2,3-F2)]P[Oic]I[Pen]IP-NH2
modifications: disulfide 3-11; N-terminus assumed
SMILES: CC[C@H](C)[C@H](NC(=O)CNC)C(=O)N[C@H]1CSSC(C)(C)[C@@H](C(=O)N[C@H](C(=O)N2CCC[C@H]2C(N)=O)[C@@H](C)CC)NC(=O)[C@H]([C@@H](C)CC)NC(=O)[C@@H]2C[C@@H]3CCCC[C@@H]3N2C(=O)[C@@H]2CCCN2C(=O)[C@H](Cc2cccc(F)c2F)NC(=O)[C@H](CO)NC(=O)[C@H](CCCNC(=N)N)NC(=O)[C@H](CO)NC1=O
B2: Example 438: ((N-Me)G)-IC+SRSLP-(Oic)-I-(Pen)+IP-((5-Azaspiro[2.4]heptane-1-carboxylic acid)-OH (peptide)
peptide: [Sar]ICSRSLP[Oic]I[Pen]IP[5‑Azaspiro(2.4)heptane‑1‑carboxylic acid]-OH
modifications: disulfide 3-11
B3: Example 447: ((N-Me)G)-IC+SRS-((tBu)A)-PPI-(Pen)+IP-((1-Bn)H)-OH (peptide)
peptide: [Sar]ICSRS[tBuAla]PPI[Pen]IP[His(τ-Bzl)]-OH
modifications: disulfide 3-11; N-terminus assumed
SMILES: CC[C@H](C)[C@H](NC(=O)CNC)C(=O)N[C@H]1CSSC(C)(C)[C@@H](C(=O)N[C@H](C(=O)N2CCC[C@H]2C(=O)N[C@@H](Cc2cn(Cc3ccccc3)cn2)C(=O)O)[C@@H](C)CC)NC(=O)[C@H]([C@@H](C)CC)NC(=O)[C@@H]2CCCN2C(=O)[C@@H]2CCCN2C(=O)[C@H](CC(C)(C)C)NC(=O)[C@H](CO)NC(=O)[C@H](CCCNC(=N)N)NC(=O)[C@H](CO)NC1=O
B4: Example 444: ((3-Me)H)-IC+SRSLP-(Oic)-I-(Pen)+IP-NH2 (peptide)
peptide: [(3-Me)H]ICSRSLP[Oic]I[Pen]IP-NH2
modifications: disulfide 3-11
B5: Example 445: ((N-Me)A)-IC+SRS-((tBu)A)-P-((3R,6R)-1,1-Difluoro-5-azaspiro[2.4]heptane-6-carboxylic acid (enantiomer 2))-I-(Pen)+IP-NH2 (peptide)
peptide: [NMeA]ICSRS[tBuAla]P[(3R,6R)‑1,1‑Difluoro‑5‑azaspiro(2.4)heptane‑6‑carboxylic acid (enantiomer 2)]I[Pen]IP-NH2
modifications: disulfide 3-11
B6: Example 419: ((N-Me)G)-IC+SRSLP-(Oic)-I-(Pen)+I-((5-Azaspiro[2.4]heptane-1-carboxylic acid)-OH (peptide)
peptide: [Sar]ICSRSLP[Oic]I[Pen]I[5‑Azaspiro(2.4)heptane‑1‑carboxylic acid]-OH
modifications: disulfide 3-11
B7: Example 437: ((N-Me)G)-IC+SRSLP-(Oic)-I-(Pen)+IP-((2S)-3-(Triazol-1-yl)-2-(amino)propanoic acid)-NH2 (peptide)
peptide: [Sar]ICSRSLP[Oic]I[Pen]IP[(2S)‑3‑(Triazol-1-yl)‑2‑(amino)propanoic acid]-NH2
modifications: disulfide 3-11
B8: Example 405: ((N-Me)G)-(Orn)-(Orn)-(Orn)-IC+SRSLP-(Oic)-I-(Pen)+IP-NH2 (peptide)
peptide: [Sar][Orn][Orn][Orn]ICSRSLP[Oic]I[Pen]IP-NH2
modifications: disulfide 6-14; N-terminus assumed
SMILES: CC[C@H](C)[C@H](NC(=O)[C@H](CCCN)NC(=O)[C@H](CCCN)NC(=O)[C@H](CCCN)NC(=O)CNC)C(=O)N[C@H]1CSSC(C)(C)[C@@H](C(=O)N[C@H](C(=O)N2CCC[C@H]2C(N)=O)[C@@H](C)CC)NC(=O)[C@H]([C@@H](C)CC)NC(=O)[C@@H]2C[C@@H]3CCCC[C@@H]3N2C(=O)[C@@H]2CCCN2C(=O)[C@H](CC(C)C)NC(=O)[C@H](CO)NC(=O)[C@H](CCCNC(=N)N)NC(=O)[C@H](CO)NC1=O
B9: Example 347: IC+SRSLP-(Oic)-I-(Pen)+IPD-OH (peptide)
peptide: ICSRSLP[Oic]I[Pen]IPD-OH
modifications: disulfide 2-10; N-terminus assumed
SMILES: CC[C@H](C)[C@H](N)C(=O)N[C@H]1CSSC(C)(C)[C@@H](C(=O)N[C@H](C(=O)N2CCC[C@H]2C(=O)N[C@@H](CC(=O)O)C(=O)O)[C@@H](C)CC)NC(=O)[C@H]([C@@H](C)CC)NC(=O)[C@@H]2C[C@@H]3CCCC[C@@H]3N2C(=O)[C@@H]2CCCN2C(=O)[C@H](CC(C)C)NC(=O)[C@H](CO)NC(=O)[C@H](CCCNC(=N)N)NC(=O)[C@H](CO)NC1=O
B10: Example 323: GIC+SRSLP-(Oic)-IC+IPD-OH (peptide)
peptide: GICSRSLP[Oic]ICIPD-OH
modifications: disulfide 3-11; N-terminus assumed
SMILES: CC[C@H](C)[C@H](NC(=O)CN)C(=O)N[C@H]1CSSC[C@@H](C(=O)N[C@H](C(=O)N2CCC[C@H]2C(=O)N[C@@H](CC(=O)O)C(=O)O)[C@@H](C)CC)NC(=O)[C@H]([C@@H](C)CC)NC(=O)[C@@H]2C[C@@H]3CCCC[C@@H]3N2C(=O)[C@@H]2CCCN2C(=O)[C@H](CC(C)C)NC(=O)[C@H](CO)NC(=O)[C@H](CCCNC(=N)N)NC(=O)[C@H](CO)NC1=O
B11: Example 305: (Tetrahydropyranyl-4-acetic acid)-IC+SRS-((tBu)A)-PPI-((N-Me)C)+I-NH2 (peptide)
peptide: X5-ICSRS[tBuAla]PPI[NMeC]I-NH2
modifications: disulfide 2-10
SMILES: CC[C@H](C)[C@H](NC(=O)[C@@H]1CSSC[C@H](NC(=O)[C@@H](NC(=O)CC2CCOCC2)[C@@H](C)CC)C(=O)N[C@@H](CO)C(=O)N[C@@H](CCCNC(=N)N)C(=O)N[C@@H](CO)C(=O)N[C@@H](CC(C)(C)C)C(=O)N2CCC[C@H]2C(=O)N2CCC[C@H]2C(=O)N[C@@H]([C@@H](C)CC)C(=O)N1C)C(N)=O
B12: Example 439: ((N-Me)G)-IC+SRS-((tBu)A)-P-((6S)-5-Azaspiro[2.4]heptane-6-carboxylic acid)-I-(Pen)+IP-NH2 (peptide)
peptide: [Sar]ICSRS[tBuAla]P[Pro(4-spirocPr)]I[Pen]IP-NH2
modifications: disulfide 3-11; N-terminus assumed
SMILES: CC[C@H](C)[C@H](NC(=O)CNC)C(=O)N[C@H]1CSSC(C)(C)[C@@H](C(=O)N[C@H](C(=O)N2CCC[C@H]2C(N)=O)[C@@H](C)CC)NC(=O)[C@H]([C@@H](C)CC)NC(=O)[C@@H]2CC3(CC3)CN2C(=O)[C@@H]2CCCN2C(=O)[C@H](CC(C)(C)C)NC(=O)[C@H](CO)NC(=O)[C@H](CCCNC(=N)N)NC(=O)[C@H](CO)NC1=O
B13: Example 381: ((N-Me)G)-(Orn)-(Orn)-(Orn)-IC+SRS-((tBu)A)-PPI-(Pen)+IP-NH2 (peptide)
peptide: [Sar][Orn][Orn][Orn]ICSRS[tBuAla]PPI[Pen]IP-NH2
modifications: disulfide 6-14; N-terminus assumed
SMILES: CC[C@H](C)[C@H](NC(=O)[C@H](CCCN)NC(=O)[C@H](CCCN)NC(=O)[C@H](CCCN)NC(=O)CNC)C(=O)N[C@H]1CSSC(C)(C)[C@@H](C(=O)N[C@H](C(=O)N2CCC[C@H]2C(N)=O)[C@@H](C)CC)NC(=O)[C@H]([C@@H](C)CC)NC(=O)[C@@H]2CCCN2C(=O)[C@@H]2CCCN2C(=O)[C@H](CC(C)(C)C)NC(=O)[C@H](CO)NC(=O)[C@H](CCCNC(=N)N)NC(=O)[C@H](CO)NC1=O
B14: Example 436: ((N-Me)G)-IC+SRSLP-(Oic)-I-(Pen)+IPP-((2S)-3-(Triazol-1-yl)-2-(amino)propanoic acid)-NH2 (peptide)
peptide: [Sar]ICSRSLP[Oic]I[Pen]IPP[(2S)‑3‑(Triazol-1-yl)‑2‑(amino)propanoic acid]-NH2
modifications: disulfide 3-11
B15: Example 360: (4-(3,5-Dimethyl-1,2-oxazol-4-yl)-L-phenylalanine)-IC+SRSLP-(Oic)-I-(Pen)+IP-NH2 (peptide)
peptide: [X7]ICSRSLP[Oic]I[Pen]IP-NH2
modifications: disulfide 3-11; N-terminus assumed
SMILES: CC[C@H](C)[C@H](NC(=O)[C@@H](N)Cc1ccc(-c2c(C)noc2C)cc1)C(=O)N[C@H]1CSSC(C)(C)[C@@H](C(=O)N[C@H](C(=O)N2CCC[C@H]2C(N)=O)[C@@H](C)CC)NC(=O)[C@H]([C@@H](C)CC)NC(=O)[C@@H]2C[C@@H]3CCCC[C@@H]3N2C(=O)[C@@H]2CCCN2C(=O)[C@H](CC(C)C)NC(=O)[C@H](CO)NC(=O)[C@H](CCCNC(=N)N)NC(=O)[C@H](CO)NC1=O
B16: Example 370: fIC+SRSLP-(Oic)-I-(Pen)+IP-NH2 (peptide)
peptide: [dF]ICSRSLP[Oic]I[Pen]IP-NH2
modifications: disulfide 3-11; N-terminus assumed
SMILES: CC[C@H](C)[C@H](NC(=O)[C@H](N)Cc1ccccc1)C(=O)N[C@H]1CSSC(C)(C)[C@@H](C(=O)N[C@H](C(=O)N2CCC[C@H]2C(N)=O)[C@@H](C)CC)NC(=O)[C@H]([C@@H](C)CC)NC(=O)[C@@H]2C[C@@H]3CCCC[C@@H]3N2C(=O)[C@@H]2CCCN2C(=O)[C@H](CC(C)C)NC(=O)[C@H](CO)NC(=O)[C@H](CCCNC(=N)N)NC(=O)[C@H](CO)NC1=O
B17: Example 440: ((N-Me)G)-IC+SRS-((2S)-3-(2,3-difluorophenyl)-2-aminopropanoic acid)-PPI-(Pen)+IP-NH2 (peptide)
peptide: [Sar]ICSRS[Phe(2,3-F2)]PPI[Pen]IP-NH2
modifications: disulfide 3-11; N-terminus assumed
SMILES: CC[C@H](C)[C@H](NC(=O)CNC)C(=O)N[C@H]1CSSC(C)(C)[C@@H](C(=O)N[C@H](C(=O)N2CCC[C@H]2C(N)=O)[C@@H](C)CC)NC(=O)[C@H]([C@@H](C)CC)NC(=O)[C@@H]2CCCN2C(=O)[C@@H]2CCCN2C(=O)[C@H](Cc2cccc(F)c2F)NC(=O)[C@H](CO)NC(=O)[C@H](CCCNC(=N)N)NC(=O)[C@H](CO)NC1=O
B18: Example 443: ((N-Me)A)-IC+SRS-((tBu)A)-P-((3R,6R)-1,1-Difluoro-5-azaspiro[2.4]heptane-6-carboxylic acid (enantiomer 1))-I-(Pen)+IP-NH2 (peptide)
peptide: [NMeA]ICSRS[tBuAla]P[(3R,6R)‑1,1‑Difluoro‑5‑azaspiro(2.4)heptane‑6‑carboxylic acid (enantiomer 1)]I[Pen]IP-NH2
modifications: disulfide 3-11

Target: T1, recombinant rat MASP1 active protease …
Test: cell-based or functional assay

rat MASP1 IC50	Binder
410 nM	B1
31 nM	B2
21 nM	B3
130 nM	B4
150 nM	B5
70 nM	B6
46 nM	B7
650 nM	B8
1000 nM	B9
51.8 nM	B10
76 nM	B11
36 nM	B12
600 nM	B13
39 nM	B14
120 nM	B15
235 nM	B16
610 nM	B17
29 nM	B18

Target: recombinant rat MASP2 active protease (amino acids 296-685, C-terminal His Tag) (rat, UniProt Q9JJS8 296-685)
Sequence (Q9JJS8 other isoform, or with tags, fused parts or gaps limits assumed): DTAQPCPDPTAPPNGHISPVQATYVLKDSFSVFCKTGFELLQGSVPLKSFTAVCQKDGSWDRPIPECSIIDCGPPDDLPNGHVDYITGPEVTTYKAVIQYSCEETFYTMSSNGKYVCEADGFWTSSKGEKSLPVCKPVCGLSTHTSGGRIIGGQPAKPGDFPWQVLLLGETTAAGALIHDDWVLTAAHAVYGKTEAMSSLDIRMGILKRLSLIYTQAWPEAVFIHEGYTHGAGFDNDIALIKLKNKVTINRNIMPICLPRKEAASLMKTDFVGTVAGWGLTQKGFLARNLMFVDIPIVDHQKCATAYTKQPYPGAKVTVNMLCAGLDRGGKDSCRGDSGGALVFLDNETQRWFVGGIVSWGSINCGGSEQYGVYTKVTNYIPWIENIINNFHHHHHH
Test: cell-based or functional assay

rat MASP2 IC50	Binder
120 nM	B1
22 nM	B2
35 nM	B3
9.8 nM	B4
94 nM	B5
42 nM	B6
40 nM	B7
510 nM	B8
1000 nM	B9
60.1 nM	B10
5.3 nM	B11
9.4 nM	B12
470 nM	B13
31 nM	B14
73 nM	B15
170 nM	B16
14 nM	B17
4.7 nM	B18
